From PMC8053085, “Di-phosphorylated BAF shows altered structural dynamics and binding to DNA, but interacts with its nuclear envelope partners” (Nucleic Acids Research, 2021) come the findings set out here.

Several values for one entry are separate records, joined by “and”; a condition that tells them apart may be missing. Equal values may be shown once.

Sequences and labels used below:
B1: Barrier-to-autointegration factor (BAF construct with the four cysteines replaced by alanines) (natural protein, human, UniProt O75531 1-89, looked up)
chain: GTTSQKHRDFVAEPMGEKPVGSLAGIGEVLGKKLEERGFDKAYVVLGQFLVLKKDEDLFREWLKDTAGANAKQSRDAFGALREWADAFL
notes: human barrier-to-autointegration factor (BANF1), an 89-aa protein; residue 1 is a glycine left by the TEV site instead of the native methionine; all four cysteines mutated into alanine; also called BAF WT; non-phosphorylated BAF; not shown: His tag, N-terminal, cleaved
B2: Di-phosphorylated BAF (BAF phosphorylated by VRK1 on Thr3 and Ser4) (natural protein, human, UniProt O75531 1-89, looked up)
chain: GTTSQKHRDFVAEPMGEKPVGSLAGIGEVLGKKLEERGFDKAYVVLGQFLVLKKDEDLFREWLKDTAGANAKQSRDAFGALREWADAFL
modifications: phosphothreonine at 3, phosphoserine at 4
notes: human barrier-to-autointegration factor (BANF1), an 89-aa protein; residue 1 is a glycine left by the TEV site instead of the native methionine; all four cysteines mutated into alanine; phosphorylated on Thr3 and Ser4; Same construct as m1, then phosphorylated; also called pBAF; not shown: His tag, N-terminal, cleaved

Series [1] relates to BAF WT (Cys-less construct) (human). The experiment in a line: ITC. Conditions: ITC: 50 mM Tris-HCl pH 8.0, 150 mM NaCl, 15 C, 20 uM BAF in cell, DNA 200 uM (7/21 nt) or 100 uM (48 nt) in syringe; fluorescence assay buffer not given in the ….
The test system of series [2] is BAF A12T (human). Briefly: ITC. To be noted: ITC: 50 mM Tris-HCl pH 8.0, 150 mM NaCl, 15 C, 20 uM BAF in cell, DNA 200 uM (7/21 nt) or 100 uM (48 nt) in syringe; fluorescence assay buffer not given in the ….
Series [3] concerns BAF WT (Cys-less construct) (human). The experiment in a line: fluorescence, dye-labelled coated dsDNA. Conditions: mean of 5; ITC: 50 mM Tris-HCl pH 8.0, 150 mM NaCl, 15 C, 20 uM BAF in cell, DNA 200 uM (7/21 nt) or 100 uM (48 nt) in syringe; fluorescence assay buffer not given in the ….
For series [4], the system named is pBAF (pThr3, pSer4) (human). Briefly: fluorescence, dye-labelled coated dsDNA. Conditions: mean of 2; ITC: 50 mM Tris-HCl pH 8.0, 150 mM NaCl, 15 C, 20 uM BAF in cell, DNA 200 uM (7/21 nt) or 100 uM (48 nt) in syringe; fluorescence assay buffer not given in the ….
In another series the test system is BAF S4E (human). Briefly: fluorescence, dye-labelled coated dsDNA. To be noted: mean of 2; ITC: 50 mM Tris-HCl pH 8.0, 150 mM NaCl, 15 C, 20 uM BAF in cell, DNA 200 uM (7/21 nt) or 100 uM (48 nt) in syringe; fluorescence assay buffer not given in the ….
Series [5] deals with BAF A12T (human). The experiment in a line: fluorescence, dye-labelled coated dsDNA. To be noted: mean of 4; ITC: 50 mM Tris-HCl pH 8.0, 150 mM NaCl, 15 C, 20 uM BAF in cell, DNA 200 uM (7/21 nt) or 100 uM (48 nt) in syringe; fluorescence assay buffer not given in the ….
Series [6] concerns the target T1, IgFold domain of human lamin A/C from amino acid 411 to amino acid 566 (human, UniProt P02545 411-566).
T1 construct: human lamin A/C, residues 411-566 including the IgFold domain; Cloned into a pGEX vector; also called LamIgF; lamin A/C Igfold domain; source: E. coli BL21 DE3 Star, purified (glutathione beads, thrombin cleavage, gel filtration); 15N labelled for NMR
T1 sequence (looked up): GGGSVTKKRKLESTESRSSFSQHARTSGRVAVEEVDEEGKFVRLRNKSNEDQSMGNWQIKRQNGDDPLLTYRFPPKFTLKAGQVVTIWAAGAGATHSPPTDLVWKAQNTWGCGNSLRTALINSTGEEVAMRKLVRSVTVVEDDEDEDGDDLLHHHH
Briefly: ITC; VP-ITC, 15°C; BAF or pBAF dimers at 20 μM in the cell titrated with LamIgF at 100 μM or LEM at 150 μM in the syringe; 50 mM HEPES pH 7.4, 150 mM NaCl; in duplicate. Conditions: both partners purified.

In series [7] the target is B1. The series is described as above. To be noted: both partners purified.
In series [8] the target is B2. The description is as above. To be noted: both partners purified.
Series [9] addresses T2, Di-phosphorylated BAF (BAF phosphorylated by VRK1 on Thr3 and Ser4) (human, UniProt O75531 1-89, glycine as residue 1 instead of the native methionine | C67 mutated into …, phosphothreonine at 3, phosphoserine at 4).
T2 sequence: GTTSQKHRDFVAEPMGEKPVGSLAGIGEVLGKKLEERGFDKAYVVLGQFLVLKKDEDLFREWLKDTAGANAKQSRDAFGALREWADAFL
Briefly: ITC; phosphorylated BAF (pThr3, pSer4).

Series [10] has as its target T3, Barrier-to-autointegration factor (BAF construct with the four cysteines replaced by alanines) (human, UniProt O75531 1-89, glycine as residue 1 instead of the native methionine | C67 mutated into …).
T3 sequence: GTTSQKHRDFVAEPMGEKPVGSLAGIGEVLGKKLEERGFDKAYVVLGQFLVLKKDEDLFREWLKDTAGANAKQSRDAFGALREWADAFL
Briefly: ITC.

Turning to 7 nt dsDNA, the Kd is 1000 nM and 2100 nM in [1]; 1700 nM and 920 nM with BAF A12T (human) [2].

For 21 nt dsDNA, the Kd in [1] was 170 nM and 110 nM; in the series with BAF A12T (human) [2] it was 300 nM and 210 nM.

Consider 48 nt dsDNA (ITC), for which the Kd in series [1] was determined as 41.1 nM; in the series on BAF A12T (human) [2], 28.8 nM.

Regarding 48 nt dsDNA, coated, the Kd in [3] was determined as 2.54 nM; in [4], 10700 nM; in the series with BAF S4E (human), 15000 nM; with BAF A12T (human) [5], 2.5 nM.

Turning to B1, the Kd in [6] was found to be 4500 ± 500 nM.

With B2, the Kd in [6] turned out to be 4900 ± 800 nM.

B3: LEM domain of human emerin from amino acid 1 to amino acid 46 (domain or fragment, UniProt P50402 1-46, looked up)
chain: MDNYADLSDTELTTLLRRYNIPHGPVVGSTRRLYEKKIFEYETQRR
notes: human emerin, residues 1-46 (LEM domain); also called emerin LEM domain; LEM fragment
Consider B3, for which the Kd in [7] is about 1000 nM; in series [8], about 1000 nM; in series [9], 700 nM; in series [10], 1100 nM.
